In patent publication US20240158448A1 (University of Pennsylvania, published 2024):
Positions of bridges follow the written chain, without caps; N, C: chain ends. No end group written: not given here.

T1: mouse SIRPα expressed on J774A.1 macrophages (mouse, UniProt P97797 32-513)
T1 sequence (looked up): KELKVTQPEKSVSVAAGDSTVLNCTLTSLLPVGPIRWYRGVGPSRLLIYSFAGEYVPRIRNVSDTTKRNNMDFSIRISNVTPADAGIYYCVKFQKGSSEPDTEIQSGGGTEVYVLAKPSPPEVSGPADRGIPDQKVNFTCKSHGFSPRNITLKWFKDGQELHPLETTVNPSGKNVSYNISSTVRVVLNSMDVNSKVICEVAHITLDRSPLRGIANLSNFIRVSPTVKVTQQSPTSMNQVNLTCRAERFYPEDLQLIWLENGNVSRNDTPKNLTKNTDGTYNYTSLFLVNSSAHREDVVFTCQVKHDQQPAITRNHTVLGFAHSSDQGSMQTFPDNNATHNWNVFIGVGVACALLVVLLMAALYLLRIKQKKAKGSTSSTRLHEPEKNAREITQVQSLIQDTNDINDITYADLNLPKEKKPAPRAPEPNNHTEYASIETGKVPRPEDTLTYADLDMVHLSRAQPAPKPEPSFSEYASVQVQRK

T2: mouse SIRPα expressed on primary bone marrow derived macrophages (C57BL6/J) (mouse, UniProt P97797 32-513)
T2 sequence (looked up): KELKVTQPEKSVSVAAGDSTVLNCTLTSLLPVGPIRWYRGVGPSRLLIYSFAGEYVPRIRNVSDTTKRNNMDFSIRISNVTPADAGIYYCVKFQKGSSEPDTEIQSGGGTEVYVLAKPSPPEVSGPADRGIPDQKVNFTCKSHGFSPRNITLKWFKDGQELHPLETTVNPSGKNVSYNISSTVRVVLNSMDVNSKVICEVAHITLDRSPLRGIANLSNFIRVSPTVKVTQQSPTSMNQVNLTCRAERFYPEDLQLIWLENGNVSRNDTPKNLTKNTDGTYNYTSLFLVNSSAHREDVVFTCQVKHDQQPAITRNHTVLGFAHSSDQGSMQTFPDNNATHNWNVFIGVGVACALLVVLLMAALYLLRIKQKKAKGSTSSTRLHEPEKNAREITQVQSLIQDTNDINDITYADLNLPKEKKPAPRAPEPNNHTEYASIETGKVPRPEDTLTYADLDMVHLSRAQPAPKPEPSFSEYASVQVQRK


What was measured:
Test in all cases: cell-based or functional assay
[1] = target: T1, mouse SIRPα expressed on J774A.1 …
[2] = target: human SIRPα expressed on cells (PMA-differentiated THP-1 macrophages; A549 cells) (human, UniProt P78324 31-504)
[3] = target: T2, mouse SIRPα expressed on primary bone …

Binder	increase in THP-1 macrophage phagocytosis of opsonized RBCs relative to nS-wt [2]	maximum phagocytosis of opsonized RBCs by THP-1 macrophages [2]	maximum phagocytosis of opsonized B16 cells by mouse BMDMs [3]	other results
VTELFREG-NH2 [nS-F]	~25%	~25%	~25%	phagocytosis of opsonized RBCs by J774A.1 macrophages, relative to nS-X [1]: 3 fold
nS-FF, (VTELFREG-PEG5)2-K (not fully specified; core Lys carrying one PEG5-peptide arm on each of its two amines; C-terminal amide; C-terminus joined through a PEG5 linker to one of the two amines of the core Lys) peptide: VTELFREG K	–	–	–	activity relative to nS-wt in phagocytosis of opsonized RBCs [2]: > 100 fold; increase in phagocytic macrophages relative to anti-CD47 on opRBC [2]: ~10%
VTELTREG-NH2 [nS-wt (nano-Self wild-type peptide)]	–	–	–	fold decrease in effective activity in the mouse macrophage phagocytosis assay relative to the human assay [1]: ~100 fold
CVTELFREGC (HELM PEPTIDE1{C.V.T.E.L.F.R.E.G.C.[am]}$PEPTIDE1,PEPTIDE1,1:R3-10:R3$$$V2.0; N-terminus assumed; SMILES CC(C)C[C@@H]1NC(=O)[C@H](CCC(=O)O)NC(=O)[C@H]([C@@H](C)O)NC(=O)[C@H](C(C)C)NC(=O)[C@@H](N)CSSC[C@@H](C(N)=O)NC(=O)CNC(=O)[C@H](CCC(=O)O)NC(=O)[C@H](CCCNC(=N)N)NC(=O)[C@H](Cc2ccccc2)NC1=O) [nS-F-Cyc]	~25%	~25%	~25%	–
CVELTREGC-NH2 (disulfide 1-9; not fully specified) [nS-Cyc (cyclic nano-Self peptide)]	–	~25%	~25%	–
